B1: HDV Ribozyme (parent)
chain: GGCCGGCAUGGUCCCAGCCUCCUCGCUGGCGCCGGCUGGGCAACAUUCCGAGGGGACCGUCCCCUCGGUAAUGGCGAAUGGGACCCA

Variants of: B1
Experiment: self-cleavage, relative activity (ratio to wild type); higher = more cleavage; co-transcriptional

Q: For A16U C36A, which self-cleavage is on record?
A: 0.0475

Q: Which self-cleavage does the source give for A16U C36G here?
A: 0.0519

Q: With A16G G28C as the variant, how does the self-cleavage read?
A: 0.115

Q: For G17A G55C, which self-cleavage is on record?
A: 0.742

Q: For A16G G35U, which self-cleavage is on record?
A: 0.375

Q: With A16G G35C as the variant, how does the self-cleavage read?
A: 0.138

Q: With A16G U65C as the variant, how does the self-cleavage read?
A: 1.26

Q: With G17A C36U as the variant, how does the self-cleavage read?
A: 0.272

Q: Which self-cleavage does the source give for A16U U60C here?
A: 0.831

Q: For A16U U60A, which self-cleavage is on record?
A: 0.587

Q: With G17A G34A as the variant, how does the self-cleavage read?
A: 0.117

Q: For G17A G34C, which self-cleavage is on record?
A: 0.0594

Q: For A16C U27A, which self-cleavage is on record?
A: 0.684

Q: For A16C G74C, which self-cleavage is on record?
A: 0.185

Q: For A16C G74A, which self-cleavage is on record?
A: 0.0692

Q: With A16C G74U as the variant, how does the self-cleavage read?
A: 0.415

Q: For A16U C19U, which self-cleavage is on record?
A: 0.122

Q: With A16U C19G as the variant, how does the self-cleavage read?
A: 0

Q: Which self-cleavage does the source give for G17A G53A here?
A: 1.02

Q: With G17A G53C as the variant, how does the self-cleavage read?
A: 0.831

Q: For A16U C86A, which self-cleavage is on record?
A: 1.03

Q: With A16G C49U as the variant, how does the self-cleavage read?
A: 1.23

Q: With A16G C49G as the variant, how does the self-cleavage read?
A: 0.875

Q: For G17A U27A, which self-cleavage is on record?
A: 0.609

Q: Which self-cleavage does the source give for A16G A51G here?
A: 0.703

Q: With A16G A51U as the variant, how does the self-cleavage read?
A: 0.906

Q: For A16C G38U, which self-cleavage is on record?
A: 0.287

Q: With A16C G38A as the variant, how does the self-cleavage read?
A: 0.0504

Q: Which self-cleavage does the source give for A16U C41U here?
A: 0.997

Q: Which self-cleavage does the source give for A16U G74C here?
A: 0.175

Q: Which self-cleavage does the source give for A16U G74A here?
A: 0.388

Q: Which self-cleavage does the source give for G17A G25C here?
A: 0.158

Q: For A16U G28U, which self-cleavage is on record?
A: 0.222

Q: With A16U G28C as the variant, how does the self-cleavage read?
A: 0

Q: For A16G G80C, which self-cleavage is on record?
A: 0.249

Q: For A16G G80A, which self-cleavage is on record?
A: 0.243

Q: With A16U C63G as the variant, how does the self-cleavage read?
A: 0.831

Q: With G17A A71C as the variant, how does the self-cleavage read?
A: 0.151

Q: For G17A C57A, which self-cleavage is on record?
A: 0.965

Q: With G17A C57U as the variant, how does the self-cleavage read?
A: 0.727

Q: Which self-cleavage does the source give for A16U G38C here?
A: 0

Q: For A16C G82C, which self-cleavage is on record?
A: 0.0755

Q: With A16G G39A as the variant, how does the self-cleavage read?
A: 0.404

Q: With A16U G39C as the variant, how does the self-cleavage read?
A: 0.185

Q: With A16U G35U as the variant, how does the self-cleavage read?
A: 0.208

Q: For A16U G35A, which self-cleavage is on record?
A: 0.342

Q: Which self-cleavage does the source give for G17A G29A here?
A: 0.128

Q: With G17A G68U as the variant, how does the self-cleavage read?
A: 0.659

Q: Which self-cleavage does the source give for G17A G68A here?
A: 0.76

Q: Which self-cleavage does the source give for A16G C58A here?
A: 0.762

Q: With A16G C58G as the variant, how does the self-cleavage read?
A: 0.776

Q: With A16U G52A as the variant, how does the self-cleavage read?
A: 0.7

Q: With A16U G52U as the variant, how does the self-cleavage read?
A: 0.863

Q: With A16U A42U as the variant, how does the self-cleavage read?
A: 0.465

Q: With A16G C61G as the variant, how does the self-cleavage read?
A: 0.962

Q: Which self-cleavage does the source give for G17A C62A here?
A: 0.886

Q: For G17A C62G, which self-cleavage is on record?
A: 0.633

Q: For A16G C64G, which self-cleavage is on record?
A: 0.807

Q: Which self-cleavage does the source give for G17A C19U here?
A: 0.119

Q: For A16C G81A, which self-cleavage is on record?
A: 0.489

Q: For G17A C32A, which self-cleavage is on record?
A: 0.0852

Q: Which self-cleavage does the source give for A16U G76U here?
A: 1.05

Q: With A16G G38A as the variant, how does the self-cleavage read?
A: 0.213

Q: Which self-cleavage does the source give for A16G G38C here?
A: 0.142

Q: With A16U G53A as the variant, how does the self-cleavage read?
A: 1.01

Q: With A16G C85G as the variant, how does the self-cleavage read?
A: 0.965

Q: For A16G C85U, which self-cleavage is on record?
A: 0.969

Q: With G17A C86G as the variant, how does the self-cleavage read?
A: 0.591

Q: With A16G C66A as the variant, how does the self-cleavage read?
A: 0.88

Q: For A16G C66G, which self-cleavage is on record?
A: 0.743

Q: For G17A A83G, which self-cleavage is on record?
A: 0.7

Q: With G17A A83U as the variant, how does the self-cleavage read?
A: 0.565

Q: Which self-cleavage does the source give for G17A G31C here?
A: 0.188

Q: For G17A G31U, which self-cleavage is on record?
A: 0.102

Q: For G17A A43C, which self-cleavage is on record?
A: 0.0369

Q: With A16U C49G as the variant, how does the self-cleavage read?
A: 0.91

Q: With A16U C49U as the variant, how does the self-cleavage read?
A: 0.918

Q: Which self-cleavage does the source give for A16U C49A here?
A: 0.895

Q: For G17A C30G, which self-cleavage is on record?
A: 0.631

Q: For A16G A42U, which self-cleavage is on record?
A: 0.396

Q: Which self-cleavage does the source give for A16G A42G here?
A: 0.504

Q: For A16U C57G, which self-cleavage is on record?
A: 1.22

Q: For A16U U20G, which self-cleavage is on record?
A: 0.0791

Q: Which self-cleavage does the source give for A16U C66G here?
A: 1.26

Q: For A16U C66A, which self-cleavage is on record?
A: 0.831

Q: Which self-cleavage does the source give for A16G G54U here?
A: 0.72

Q: Which self-cleavage does the source give for A16U U27C here?
A: 0.587

Q: Which self-cleavage does the source give for A16U U27A here?
A: 0.697

Q: With A16U G67C as the variant, how does the self-cleavage read?
A: 0.978

Q: With A16U G54U as the variant, how does the self-cleavage read?
A: 0.771

Q: With A16U G54C as the variant, how does the self-cleavage read?
A: 0.955

Q: With A16U G54A as the variant, how does the self-cleavage read?
A: 0.795

Q: With G17A A45G as the variant, how does the self-cleavage read?
A: 0.755

Q: Which self-cleavage does the source give for G17A A45U here?
A: 0.696

Q: For A16G G50C, which self-cleavage is on record?
A: 0.95

Q: For A16G G50U, which self-cleavage is on record?
A: 1.02

Q: Which self-cleavage does the source give for A16U C75U here?
A: 0.189

Q: Which self-cleavage does the source give for A16U C75A here?
A: 0.111

Q: For A16U C58A, which self-cleavage is on record?
A: 1.09

Q: For A16U C58U, which self-cleavage is on record?
A: 0.962

Q: Which self-cleavage does the source give for A16G G25C here?
A: 0.166

Q: Which self-cleavage does the source give for A16G U20G here?
A: 0.145

Q: For A16G U20A, which self-cleavage is on record?
A: 0.138

Q: Which self-cleavage does the source give for A16C G68A here?
A: 0.649

Q: With A16C U20A as the variant, how does the self-cleavage read?
A: 0

Q: Which self-cleavage does the source give for A16C U20C here?
A: 0.277

Q: Which self-cleavage does the source give for A16C U46A here?
A: 0.262

Q: For A16C U46C, which self-cleavage is on record?
A: 0.511

Q: With A16C U46G as the variant, how does the self-cleavage read?
A: 0.332

Q: Which self-cleavage does the source give for G17A G67U here?
A: 0.776

Q: Which self-cleavage does the source give for A16U C48G here?
A: 1.2

Q: With A16G C62G as the variant, how does the self-cleavage read?
A: 0.369

Q: Which self-cleavage does the source give for A16G C62A here?
A: 0.877

Q: Which self-cleavage does the source give for A16G G76A here?
A: 1.07

Q: For A16U G59C, which self-cleavage is on record?
A: 0.997

Q: Which self-cleavage does the source give for A16U G59U here?
A: 0.966

Q: Which self-cleavage does the source give for G17A here?
A: 0.718

Q: For A16G C63U, which self-cleavage is on record?
A: 0.997

Q: With G17A C26A as the variant, how does the self-cleavage read?
A: 0.798

Q: With G17A C26G as the variant, how does the self-cleavage read?
A: 0.793

Q: Which self-cleavage does the source give for A16C G73U here?
A: 0.128

Q: Which self-cleavage does the source give for A16C G73C here?
A: 0.217

Q: With A16C G73A as the variant, how does the self-cleavage read?
A: 0.504

Q: For A16U C30A, which self-cleavage is on record?
A: 0.201

Q: Which self-cleavage does the source give for A16G G59C here?
A: 0.929

Q: Which self-cleavage does the source give for G17A A51U here?
A: 0.884

Q: With A16U G80A as the variant, how does the self-cleavage read?
A: 0.812

Q: With A16C U72G as the variant, how does the self-cleavage read?
A: 0.237

Q: Which self-cleavage does the source give for A16G G29C here?
A: 0

Q: With A16G G52C as the variant, how does the self-cleavage read?
A: 0.928

Q: Which self-cleavage does the source give for A16G G52U here?
A: 1.07

Q: For A16G U72G, which self-cleavage is on record?
A: 0.332

Q: For A16G U72A, which self-cleavage is on record?
A: 0.499

Q: With G17A A77U as the variant, how does the self-cleavage read?
A: 0.138

Q: Which self-cleavage does the source give for A16U G50C here?
A: 1.03

Q: With A16U G50U as the variant, how does the self-cleavage read?
A: 0.889

Q: Which self-cleavage does the source give for A16G A71G here?
A: 0.748

Q: With A16G G67C as the variant, how does the self-cleavage read?
A: 0.849

Q: Which self-cleavage does the source give for A16C G29A here?
A: 0.116

Q: With A16C G54A as the variant, how does the self-cleavage read?
A: 0.866

Q: For A16C G54U, which self-cleavage is on record?
A: 0.789

Q: For A16C G54C, which self-cleavage is on record?
A: 0.87

Q: With A16G U60A as the variant, how does the self-cleavage read?
A: 1.25

Q: With A16G U60G as the variant, how does the self-cleavage read?
A: 0.554

Q: For A16U C32G, which self-cleavage is on record?
A: 0.156

Q: Which self-cleavage does the source give for A16G A78U here?
A: 0.0692

Q: With A16G A78C as the variant, how does the self-cleavage read?
A: 0.308

Q: With A16G A78G as the variant, how does the self-cleavage read?
A: 0.465

Q: For A16U G31A, which self-cleavage is on record?
A: 0.409

Q: With A16U G31U as the variant, how does the self-cleavage read?
A: 0.225

Q: Which self-cleavage does the source give for A16U here?
A: 0.984

Q: For A16G, which self-cleavage is on record?
A: 1.07

Q: Which self-cleavage does the source give for A16U G40U here?
A: 0.964

Q: Which self-cleavage does the source give for A16G U69A here?
A: 0.985

Q: For A16G U69G, which self-cleavage is on record?
A: 0.962

Q: With G17A C22G as the variant, how does the self-cleavage read?
A: 0.0573

Q: For A16C U60G, which self-cleavage is on record?
A: 0.939

Q: Which self-cleavage does the source give for A16G U23A here?
A: 1.11

Q: Which self-cleavage does the source give for A16G U23G here?
A: 1.16

Q: Which self-cleavage does the source give for A16G U23C here?
A: 1.14

Q: For A16U U37A, which self-cleavage is on record?
A: 0.0554

Q: For A16U U37G, which self-cleavage is on record?
A: 0

Q: For A16U U37C, which self-cleavage is on record?
A: 0.929

Q: For G17A G74C, which self-cleavage is on record?
A: 0.0346

Q: For G17A G74U, which self-cleavage is on record?
A: 0.197

Q: Which self-cleavage does the source give for A16G G31U here?
A: 0.375

Q: For G17A C21A, which self-cleavage is on record?
A: 0.0297
